Measurements taken from patent US20090291088A1 (Biogen, published 2009).

Legend:
[1] = molecular target: T1, hIGF-1R-Fc mutant SD103 (D461A, V462T) (human, UniProt P08069 31-933); assay: SPR, Fab over captured mutant
T1 construct: not shown: C-terminal human IgG1-Fc tag

[2] = molecular target: T2, hIGF-1R-Fc mutant SD104 (H464A) (human, UniProt P08069 31-933); assay: SPR, Fab over captured mutant
T2 construct: not shown: C-terminal human IgG1-Fc tag

[3] = molecular target: T3, hIGF-1R-Fc mutant SD109 (Y482A, R483W) (human, UniProt P08069 31-933); assay: SPR, Fab over captured mutant
T3 construct: not shown: C-terminal human IgG1-Fc tag

[4] = molecular target: T4, hIGF-1R-Fc mutant SD108 (H480E) (human, UniProt P08069 31-933); assay: SPR, Fab over captured mutant
T4 construct: not shown: C-terminal human IgG1-Fc tag

[5] = molecular target: T5, hIGF-1R-Fc mutant SD102 (E459A, S460A) (human, UniProt P08069 31-933); assay: SPR, Fab over captured mutant
T5 construct: not shown: C-terminal human IgG1-Fc tag

[6] = molecular target: T6, hIGF-1R-Fc mutant SD113 (E570A, I571T) (human, UniProt P08069 31-933); assay: SPR, Fab over captured mutant
T6 construct: not shown: C-terminal human IgG1-Fc tag

[7] = molecular target: T7, human IGF-1R expressed on cells (human, UniProt P08069 31-1367); assay: flow cytometry, MCF-7 cells
T7 construct: On MCF-7 tumor cells or on 3T3/CHO transfectants; precursor is processed into alpha and beta subunits; Signal peptide 1-30 left out as stated; also called wild type IGF-1R; IGF-1R 3T3

[8] = molecular target: T8, hIGF-1R-Fc mutant SD015 (H464E) (human, UniProt P08069 31-933); assay: SPR (Biacore): M13-C06 injected over SD015 captured on an immobilised M13-C06 surface
T8 construct: not shown: C-terminal human IgG1-Fc tag
Experimental: After, completion of the receptor-Fc loading step, flow rates were elevated to 5 μl/min. […] At the end of each sensorgram, the flow rate was elevated to 30 μl/min and the chip surface was regenerated by 2×10 μL injections of 0.1 M glycine, pH 2.

[9] = molecular target: T9, human IGF-1R(1-902)-His10 (human, UniProt P08069 31-932); assay: SPR, Fab over captured IGF-1R-10His
T9 construct: Cy5-labelled in tr-FRET; also called hIGF-1R-His10; IGF-1R-His
Experimental: All surface plasmon resonance (SPR) experiments were performed on a Biacore 3000 set to 25° C. using HBS-EP (Biacore, Cat. No. BR-1001-88) as the running buffer. A biotin-labeled anti-HisTag antibody (biotin-PENTA-His, Qiagen Cat. No. 34440) was immobilized to saturation on a Biacore SA chip (Cat. No. BR-1000-32) surface by injection at 500 nM in HBS-EP buffer. […] Subsequent to IGF-1R injections, flow rates were increased to 20 μL/min. A second, 130 μL injection of anti-IGF-1R antibody or Fab was performed to investigate interactions with the receptor. Each antibody and Fab was serially diluted from 64 nM to 0.5 nM to obtain concentration dependent kinetic binding curves. Each injection series was regenerated using 3×10 μL injections of 10 mM Acetate, pH 4.0, at 20 μL/min. Each curve was double referenced using (1) data obtained from a streptavidin surface devoid of IGF-1R and (2) data from a primary injection of IGF-1R followed by a secondary injection of HBS-EP buffer. The concentration series for each antibody and Fab was fit to the 1:1 binding model provided within the BiaEvaluation software of the manufacturer.
To obtain discrete affinities, Fab fragments of each antibody were generated using papain digestion as described above.

human IGF-1R(1-903)-Fc = molecular target: T10, human IGF-1R(1-903)-Fc (human, UniProt P08069 31-933); assay: SPR, Fab over hIGF-1R-Fc captured by anti-Fc, 1:1 model, apparent affinity
T10 construct: Made by Biogen Idec; Multimerises through IGF-1R and Fc; also called hIGF-1R-Fc; IGF-1R-Fc; not shown: C-terminal human IgG1-Fc tag
Experimental: Experiments were performed on a Biacore 3000 set to 25° C. using HBS-EP (Biacore, Cat. No. BR-1001-88) as the running buffer. An anti-human IgG-Fc antibody (2C11 from Biogenesis, Cat. No. 5218-9850) was immobilized to saturation on a Biacore CM5 chip (Cat. No. BR-1000-14) surface by injection at 500 nM in HBS-EP buffer. mIGF-1R-Fc or hIGF-1R-Fc was captured on the chip surface by injecting 40 μL of 20 nM receptor at 3 μL/min. […] Dissociation of Fab was measured for ˜27 minutes. Fab was serially diluted from 25 to 0.4 nM to obtain concentration dependent kinetic binding curves. Regeneration of the surface chip between each injection series was performed using 3×10 μL injections of 100 mM glycine pH 2.0 at 60 μL/min. Each curve was double referenced using (1) data obtained from a CM5 chip surface devoid of the anti-IgG antibody 2C11 and (2) data from a primary injection of receptor followed by a secondary injection of HBS-EP buffer.

B1: M13-C06 Fab (Fab, V domains shown)
VH: EVQLLESGGGLVQPGGSLRLSCAASGFTFSIYRMQWVRQAPGKGLEWVSGISPSGGTTWYADSVKGRFTISRDNSKNTLYLQMNSLRAEDTAVYYCARWSGGSGYAFDIWGQGTMVTVSS
VL: DIQMTQSPLSLSASVGDRVTITCQASRDIRNYLNWYQQKPGKAPKLLIYDASSLQTGVPSRFGGSGSGTDFSFTIGSLQPEDIATYYCQQFDSLPHTFGQGTKLEIK
notes: Human Fab from a phage library, kappa light chain
binding result [1]: no binding (tested: 10 nM) | binding result [2]: no binding (tested: 10 nM) | binding result [3]: no binding (tested: 10 nM) | binding result [4]: no binding (tested: 10 nM) | binding result [5]: no binding (tested: 10 nM) | binding result [6]: no binding (tested: 10 nM) | EC50 [7]: 8.8 nM | binding result [8]: no binding (tested: 10 nM) | koff [9]: 0.0012 s⁻¹ | kon [9]: 880000 M⁻¹ s⁻¹ | Kd (human IGF-1R(1-903)-Fc): 0.978 nM
